T1: Atg9^core (Atg9^281–779), reconstituted in proteoliposomes (S. cerevisiae) (UniProt Q12142)
T1 sequence: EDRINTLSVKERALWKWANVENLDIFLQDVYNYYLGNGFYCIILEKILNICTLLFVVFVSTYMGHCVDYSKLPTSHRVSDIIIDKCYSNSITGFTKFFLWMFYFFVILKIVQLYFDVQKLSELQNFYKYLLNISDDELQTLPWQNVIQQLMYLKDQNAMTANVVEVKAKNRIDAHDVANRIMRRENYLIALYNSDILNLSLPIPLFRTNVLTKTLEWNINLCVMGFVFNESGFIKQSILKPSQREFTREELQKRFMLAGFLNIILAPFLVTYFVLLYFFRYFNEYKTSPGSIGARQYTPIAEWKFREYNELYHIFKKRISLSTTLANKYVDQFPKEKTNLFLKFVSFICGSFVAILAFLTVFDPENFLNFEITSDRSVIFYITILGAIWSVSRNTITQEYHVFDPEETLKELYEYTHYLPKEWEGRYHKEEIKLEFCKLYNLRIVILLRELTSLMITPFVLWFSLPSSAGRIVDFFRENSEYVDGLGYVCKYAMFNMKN

B1: thioredoxin-tagged Atg17^354–417 (domain or fragment, S. cerevisiae, UniProt Q06410 354-417, looked up)
chain: DVANRMKTILKDCEKQLQNLDAQDQEERQNFIAENGTYLPETIWPGKIDDFSSLYTLNYNVKNP
notes: also called dimerization domain; source: E. coli Rosetta, purified
B2: Atg17–Atg31–Atg29 trimeric complex (Atg17^TC) (complex, S. cerevisiae)
chain 1: MNEADVTKFVNNARKTLTDAQLLCSSANLRIVDIKKKLSSWQLSISKLNFLIVGLRQQGKFLYTILKEGIGTKLIQKQWNQAVLVVLVDEMKYWQYEITSKVQRLDGIVNELSISEKDDTDPSKLGDYISRDNVNLLNDKLKEVPVIERQIENIKLQYENMVRKVNKELIDTKLTDVTQKFQSKFGIDNLMETNVAEQFSRELTDLEKDLAEIMNSLTQHFDKTLLLQDKKIDNDEREELFKVVQGDDKELYNIFKTLHEVIDDVDKTILNLGQFLQAKIKEKTELHSEVSEIINDFNRNLEYLLIFKDISNLIDSFKNSCTQDIQTTKELCEFYDNFEESYGNLVLEAKRRKDVANRMKTILKDCEKQLQNLDAQDQEERQNFIAENGTYLPETIWPGKIDDFSSLYTLNYNVKNP
chain 2: MNVTVTVYDKNVKYRLEENIKNNKGPSNDDQPAYNNESKSTDGSDYAMFPTNIKYIFEDNNDELVDSSDAALTAGIDKVGDELENVIIVQLDESGSLEDITLISDQYELLSHRTNSLSLEENQMRTLSSHGDDKSNDEEEELSVDSDRFRVDSDIELDVISQFCDLSPFLRDLSLNDLIKLYVTQNEQLQMLSNSV
chain 3: MIMNSTNTVVYIKVKGRRPQGFLDPPKFEWNGTKERQLWTMVSNLNYSQDQIDWQNLSKIFETPEFFLKKRTYKLFAEHLELLQLQLEKKRDLEKYSNDQVNEGMSDLIHKYTPTLQNDNLLNVSASPLTTERQDSEEVETEVTNEALQHLQTSKILNIHKKTSDSENKPNDKLDKDGINKEMECGSSDDDLSSSLSVSKSALEEALMDRLQF
notes: Atg17, S. cerevisiae BY4741; Atg31, S. cerevisiae BY4741; Atg29, S. cerevisiae BY4741; dimer of trimers through Atg17; also produced by combining Atg17 with co-expressed Atg31–Atg29; also called Atg17-Atg31–Atg29 complex; source: E. coli Rosetta, co-expressed from pST39, purified (Ni-NTA, SEC); not shown: His6, N-terminal, cleaved; copies: 2 + 2 + 2
B3: myc-tagged Atg17 (Atg17^myc), recombinant (natural protein, S. cerevisiae, UniProt Q06410 1-417, looked up)
chain: B2 chain 1
notes: Atg17, S. cerevisiae BY4741, open reading frame from genomic DNA; expressed from pST39 with a myc-tag at the C-terminus of Atg17; also called recombinant myc-tagged Atg17; source: E. coli Rosetta, purified; not shown: myc, C-terminal, kept
B4: Atg17^1–354-Atg31–Atg29 (Atg17^monoTC) (complex, S. cerevisiae)
chain 1: MNEADVTKFVNNARKTLTDAQLLCSSANLRIVDIKKKLSSWQLSISKLNFLIVGLRQQGKFLYTILKEGIGTKLIQKQWNQAVLVVLVDEMKYWQYEITSKVQRLDGIVNELSISEKDDTDPSKLGDYISRDNVNLLNDKLKEVPVIERQIENIKLQYENMVRKVNKELIDTKLTDVTQKFQSKFGIDNLMETNVAEQFSRELTDLEKDLAEIMNSLTQHFDKTLLLQDKKIDNDEREELFKVVQGDDKELYNIFKTLHEVIDDVDKTILNLGQFLQAKIKEKTELHSEVSEIINDFNRNLEYLLIFKDISNLIDSFKNSCTQDIQTTKELCEFYDNFEESYGNLVLEAKRRKD
chain 2: B2 chain 2
chain 3: B2 chain 3
notes: Atg31, S. cerevisiae BY4741; Atg29, S. cerevisiae BY4741; source: E. coli Rosetta, co-expressed from pST39, purified (Ni-NTA, SEC); not shown: His6, N-terminal, cleaved; copies: + +
B5: thioredoxin-tagged Atg17^235–354 (domain or fragment, S. cerevisiae, UniProt Q06410 235-354, looked up)
chain: DEREELFKVVQGDDKELYNIFKTLHEVIDDVDKTILNLGQFLQAKIKEKTELHSEVSEIINDFNRNLEYLLIFKDISNLIDSFKNSCTQDIQTTKELCEFYDNFEESYGNLVLEAKRRKD
notes: source: E. coli Rosetta, purified
B6: thioredoxin-tagged Atg17^235–417 (domain or fragment, S. cerevisiae, UniProt Q06410 235-417, looked up)
chain: DEREELFKVVQGDDKELYNIFKTLHEVIDDVDKTILNLGQFLQAKIKEKTELHSEVSEIINDFNRNLEYLLIFKDISNLIDSFKNSCTQDIQTTKELCEFYDNFEESYGNLVLEAKRRKDVANRMKTILKDCEKQLQNLDAQDQEERQNFIAENGTYLPETIWPGKIDDFSSLYTLNYNVKNP
notes: as for B5
B7: Atg9^core (Atg9^281–779), reconstituted in proteoliposomes (domain or fragment, S. cerevisiae, UniProt Q12142 281-779, looked up)
chain: T1 sequence
notes: Atg9, S. cerevisiae BY4741, conserved core region, residues 281–779; modified pET28a(+) vector; about 50% of the protein in the proteoliposomes has its cytoplasmic domains outside; liposomes of cholesterol, POPE, POPC, POPS, without PI; also called Atg9–PLs; Atg9-PL; source: E. coli Rosetta, solubilised in LDAO, purified (Ni-NTA, SEC), reconstituted in liposomes; not shown: His tag, C-terminal, …

The target of data set [1] is pentameric Atg1–kinase complex (Atg1^PC) (S. cerevisiae) (UniProt P53104). Kind of data set: SEC-MALS; Atg1^PC injected at 3.4 mg ml^−1, 100 μl, Superose-6 10/300GL. A general note: Size exclusion chromatography separates by hydrodynamic size, large species first.
Data set [2] addresses B7. Briefly: co-floatation with proteoliposomes; Atg9 variant held in proteoliposomes (synthetic lipids without PI), partner in solution at 1:1, Nycodenz step gradient, 650,000g 2 h at 4 °C, 25 mM HEPES pH 7.0, 100 mM NaCl; top fraction read by SDS–PAGE or α-myc immunoblot. As to conditions: both partners purified. Background: A western blot detects proteins with antibodies after separation by electrophoresis.

The target of another data set is T2, Atg1–Atg13 subcomplex (S. cerevisiae, UniProt P53104 1-897; Q06628 1-738, phosphothreonine at 226 (T226)).
T2 construct: Atg1, S. cerevisiae BY4741; Atg13, S. cerevisiae BY4741; source: assembled from purified subunits (Atg1 from High Five cells, Atg13 from E. coli Rosetta), gel filtration on Superose 6
T2 sequence (P53104 whole entry, chain 1 of 2): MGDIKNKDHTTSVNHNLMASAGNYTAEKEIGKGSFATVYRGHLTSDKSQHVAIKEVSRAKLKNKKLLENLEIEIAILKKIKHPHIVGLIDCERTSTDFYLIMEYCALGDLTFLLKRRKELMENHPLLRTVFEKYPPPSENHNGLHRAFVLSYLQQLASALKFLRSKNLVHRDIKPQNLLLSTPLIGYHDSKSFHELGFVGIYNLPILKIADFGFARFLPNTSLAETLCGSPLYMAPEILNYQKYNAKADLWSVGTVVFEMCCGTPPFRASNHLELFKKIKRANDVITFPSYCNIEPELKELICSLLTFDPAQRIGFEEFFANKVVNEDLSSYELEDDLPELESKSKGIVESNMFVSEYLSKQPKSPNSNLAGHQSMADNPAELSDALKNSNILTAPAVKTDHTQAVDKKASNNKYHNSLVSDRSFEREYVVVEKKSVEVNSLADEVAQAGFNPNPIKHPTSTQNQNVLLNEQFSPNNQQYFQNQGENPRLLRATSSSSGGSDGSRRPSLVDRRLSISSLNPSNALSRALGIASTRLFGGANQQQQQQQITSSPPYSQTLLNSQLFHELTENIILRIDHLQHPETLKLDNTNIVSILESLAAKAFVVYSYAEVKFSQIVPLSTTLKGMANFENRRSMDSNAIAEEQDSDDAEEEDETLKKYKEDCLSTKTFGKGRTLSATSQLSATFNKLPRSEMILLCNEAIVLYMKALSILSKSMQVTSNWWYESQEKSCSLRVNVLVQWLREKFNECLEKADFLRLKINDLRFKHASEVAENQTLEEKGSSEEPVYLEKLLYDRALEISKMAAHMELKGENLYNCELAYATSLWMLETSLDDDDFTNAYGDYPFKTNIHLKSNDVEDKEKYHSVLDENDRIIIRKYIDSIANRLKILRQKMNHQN
T2 sequence (Q06628 whole entry, chain 2 of 2): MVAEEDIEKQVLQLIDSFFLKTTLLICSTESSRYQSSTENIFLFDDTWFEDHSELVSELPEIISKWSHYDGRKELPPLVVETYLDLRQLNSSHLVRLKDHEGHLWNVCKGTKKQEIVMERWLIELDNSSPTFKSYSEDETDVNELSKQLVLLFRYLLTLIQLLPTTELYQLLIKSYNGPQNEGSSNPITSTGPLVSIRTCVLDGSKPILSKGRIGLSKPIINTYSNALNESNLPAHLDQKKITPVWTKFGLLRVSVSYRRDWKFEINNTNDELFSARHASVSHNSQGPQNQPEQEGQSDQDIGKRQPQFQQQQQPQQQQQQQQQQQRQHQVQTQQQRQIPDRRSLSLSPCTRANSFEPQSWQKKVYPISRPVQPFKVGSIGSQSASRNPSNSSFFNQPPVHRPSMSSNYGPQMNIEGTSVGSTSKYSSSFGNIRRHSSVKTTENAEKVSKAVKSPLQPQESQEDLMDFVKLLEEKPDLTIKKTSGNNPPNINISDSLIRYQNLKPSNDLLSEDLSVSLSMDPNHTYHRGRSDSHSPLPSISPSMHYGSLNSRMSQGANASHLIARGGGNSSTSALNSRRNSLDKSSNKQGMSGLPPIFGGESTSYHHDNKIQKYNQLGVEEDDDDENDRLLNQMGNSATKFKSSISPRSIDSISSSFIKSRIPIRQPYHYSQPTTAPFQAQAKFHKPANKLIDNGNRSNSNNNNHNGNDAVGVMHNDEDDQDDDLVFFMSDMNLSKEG
Kind of data set: SEC; complexes assembled from purified subunits or subcomplexes, 30 min at room temperature, then gel filtration on Superose 6. As to conditions: both partners purified.

The target in data set [3] is T1, Atg9^core (Atg9^281–779), reconstituted in proteoliposomes (S. cerevisiae).
Data set [4] deals with the molecule itself. Kind of data set: dynamic light scattering; Stokes radii (RH) of the purified proteins and complexes in solution.
Data set [5] concerns the molecule itself. Briefly: not stated; recombinantly expressed Atg17 fragment; how the dimer was shown is not told.
Data set [6] has as its target T3, Atg1^PC with myc-tagged Atg17 (S. cerevisiae, UniProt P53104 1-897; Q06628 1-738; Q06410 1-417; Q12421 1-196; Q12092 1-213, phosphothreonine at 226 (T226)).
T3 construct: Atg1, S. cerevisiae BY4741; Atg13, S. cerevisiae BY4741; Atg17, S. cerevisiae BY4741; Atg31, S. cerevisiae BY4741; Atg29, S. cerevisiae BY4741; the form detected by α-myc immunoblot in the co-floatation experiments; also called Atg17^TC combined with Atg1–Atg13; source: purified Atg1–Atg13 combined with purified Atg17^TC; not shown: myc, C-terminal, kept; copies: 2 + 2 + 2 + 2 + 2
Kind of data set: co-floatation with proteoliposomes; Atg9 variant held in proteoliposomes (synthetic lipids without PI), partner in solution at 1:1, Nycodenz step gradient, 650,000g 2 h at 4 °C, 25 mM HEPES pH 7.0, 100 mM NaCl; top fraction read by SDS–PAGE or α-myc immunoblot. As to conditions: both partners purified.

Data set [7] concerns the target T4, Atg17^TC (myc-tagged Atg17) with Atg13 alone (S. cerevisiae, UniProt Q06628 1-738; Q06410 1-417; Q12421 1-196; Q12092 1-213).
T4 construct: Atg13, S. cerevisiae BY4741; Atg17, S. cerevisiae BY4741; Atg31, S. cerevisiae BY4741; Atg29, S. cerevisiae BY4741; it was not isolated as such; also called Atg17^TC in the presence of Atg13; source: purified Atg13 combined with purified Atg17^TC; not shown: myc, C-terminal, kept; copies: + 2 + 2 + 2
The description is as above. Particulars: both partners purified.

Data on eight molecules can be found in paper PMC4729957, “The Atg1–kinase complex tethers Atg9-vesicles to initiate autophagy” (Nature Communications, 2016).

T3 sequence (P53104 whole entry, chain 1 of 2): as the sequence (P53104 whole entry, chain 1 of 2) above
T3 sequence (Q06628 whole entry, chain 2 of 2): as the sequence (Q06628 whole entry, chain 2 of 2) above
T4 sequence (Q06628 whole entry, one chain of several): as the sequence (Q06628 whole entry, chain 2 of 2) above

The term stoichiometry N denotes a count of units in the complex or per binding partner. The molecule “pentameric Atg1–kinase complex (Atg1^PC), P53104 1-897; Q06628 1-738; Q06410 1-417; Q12421 1-196; Q12092 1-213” showed a stoichiometry N in data set [1] of 2.

With B1, the binding result in data set [2] was “binds”.

For B2, the binding result in the data set with Atg1–Atg13 subcomplex was “binds”. For the same molecule, the RH of Atg9–PLs prepared in the presence of Atg17^TC, by DLS (vesicle tethering) in data set [3] was 72 nm. Besides, in data set [4], the “stoichiometry N” value was determined as 2.

B3: in data set [2], the binding result was “binds”.

For the molecule B4, the binding result with Atg1–Atg13 subcomplex is reported as “binds”.

Regarding B5, the binding result in data set [2] is listed as “binds”.

In the case of B6, the binding result in data set [2] is on record as “binds”. Besides, the “stoichiometry N” value in data set [5] is 2.

B7: the binding result in data set [6] and in data set [7] was “binds” in each case.
